Experimental data: the supplement of paper PMC7877785
± gives the uncertainty stated by the source.

Assay: self-splicing fitness, log relative to wild type (ln ratio); higher = more splicing; Tetrahymena group I intron in knt gene, E. coli kanamycin selection, DiMSum; sequences stand for … in CUCUCU…GGAGGGAAAAGUUAUCAGGCAUGCACCUGGUAGCUAGUCUUUAAACCAAUAGAUUGCAUCGGUUUAAAAGGCAAGACCGUCAAAUUGCGGGAAAGGGGUCAACAGCCGUUCAGUACCAAGUCUCAGGGGAAACUUUGAGAUGGCCUUGCAAAGGGUAUGGUAAUAAGCUGACGGACAUGGUCCUAACCACGCAGCCAAGUCCUAAGUCAACAGAUCUUCUGUUGAUAUGGAUGCAGUUCACAGACUAAAUGUCGGUCGGGGAAGAUGUAUUCUUCUCAUAAGAUAUAGUCGGACCUCUCCUUAAUGGGAGCUAGCGGAUGAAGUGAUGCAACACUGGAGCCGCUGGGAACUAAUUUGUAUGCGAAAGUAUAUUGAUUAGUUUUGGAGUACUCGUGGUCG
Outline: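 The eight P1ex-region nucleotides of an intron in the knt kanamycin-resistance gene on pET-22b(+) were all randomised and the library put into E. coli BL21(DE3). Six replicate transformations were grown overnight at 37°C or 30°C on LB agar with or without 25 μg/mL kanamycin, together with 100 μg/mL carbenicillin, 50 μM IPTG and 0.2% rhamnose. Colonies were pooled and amplicon-sequenced on an Illumina HiSeq 2500. Fitness from DiMSum is the error-weighted combination of wild-type-normalised replicate fold changes, kanamycin over none.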

Sequence | self-splicing fitness (ln) (30 °C) | self-splicing fitness (ln) (37 °C)
UUCCAGCAAUAUUACGCAUA | -0.568 ± 0.093 | 0.161 ± 0.096
UUCCAGCAAUAUUACGCCUA | -0.199 ± 0.076 | 0.206 ± 0.091
UUCCAGCAAUAUUACGCCUC | -1.84 ± 0.21 | -0.711 ± 0.29
UUCCAGCAAUAUUACGCCUG | -3.5 ± 0.47 | -2.35 ± 0.39
UUCCAGCAAUAUUACGCGAC | -3.35 ± 0.24 | -0.902 ± 0.19
UUCCAGCAAUAUUACGCGAU | -2.85 ± 0.21 | -1.32 ± 0.18
UUCCAGCAAUAUUACGCGCC | -2.72 ± 0.24 | -0.4 ± 0.21
UUCCAGCAAUAUUACGCGCG | -0.776 ± 0.068 | -0.688 ± 0.099
UUCCAGCAAUAUUACGCUGU | -3.96 ± 0.24 | -2.42 ± 0.22
UUCCAGCAAUAUUACGCUUA | -0.131 ± 0.066 | -0.175 ± 0.077
UUCCAGCAAUAUUACGGAUG | -0.779 ± 0.058 | 0.293 ± 0.076
UUCCAGCAAUAUUACGGCAG | -0.446 ± 0.075 | -0.096 ± 0.11
UUCCAGCAAUAUUACGGCCA | -1.08 ± 0.13 | 0.682 ± 0.16
UUCCAGCAAUAUUACGGCUC | -2.48 ± 0.21 | -0.924 ± 0.21
UUCCAGCAAUAUUACGGGCC | -3.91 ± 0.3 | -2.34 ± 0.33
UUCCAGCAAUAUUACGGGGC | -3.09 ± 0.32 | -2.82 ± 0.34
UUCCAGCAAUAUUACGUACG | -0.796 ± 0.1 | -0.902 ± 0.16
UUCCAGCAAUAUUACGUCCA | -1.05 ± 0.12 | -0.679 ± 0.14
UUCCAGCAAUAUUACGUCCC | -2 ± 0.33 | -1.84 ± 0.3
UUCCAGCAAUAUUACGUGGC | -3.11 ± 0.15 | -3.15 ± 0.24
UUCGAGCAAUAUUACGACGG | -1.24 ± 0.11 | -0.685 ± 0.1
UUCGAGCAAUAUUACGACUG | -3.35 ± 0.34 | -1.48 ± 0.26
UUCGAGCAAUAUUACGAGAU | -3.95 ± 0.35 | -2.34 ± 0.31
UUCGAGCAAUAUUACGAUAU | -3.85 ± 0.33 | -2.51 ± 0.49
UUCGAGCAAUAUUACGAUCA | -1.89 ± 0.2 | -0.432 ± 0.14
UUCGAGCAAUAUUACGCAAA | -0.773 ± 0.28 | -1.92 ± 0.26

Sequence | self-splicing fitness (ln) (30 °C) | self-splicing fitness (ln) (37 °C)
UUCGAGCAAUAUUACGCACC | -3.33 ± 0.29 | -1.91 ± 0.24
UUCGAGCAAUAUUACGCAUC | -2.83 ± 0.39 | –
UUCGAGCAAUAUUACGCCAA | -2.89 ± 0.48 | -2.07 ± 0.27
UUCGAGCAAUAUUACGCGUA | -1.94 ± 0.14 | -1.51 ± 0.12
UUCGAGCAAUAUUACGCGUC | -2.99 ± 0.23 | -2.34 ± 0.37
UUCGAGCAAUAUUACGCGUU | -1.87 ± 0.22 | -1.88 ± 0.27
UUCGAGCAAUAUUACGCUCU | -3.38 ± 0.15 | -2.43 ± 0.14
UUCGAGCAAUAUUACGCUUA | -2.79 ± 0.21 | -1.58 ± 0.18
UUCGAGCAAUAUUACGGAAA | -1.51 ± 0.18 | -2.84 ± 0.32
UUCGAGCAAUAUUACGGAAG | -2.42 ± 0.22 | -2.12 ± 0.4
UUCGAGCAAUAUUACGGCGC | -2.99 ± 0.34 | -2.36 ± 0.39
UUCGAGCAAUAUUACGGGUA | -1.16 ± 0.18 | -1.36 ± 0.15
UUCGAGCAAUAUUACGUCCA | -2.49 ± 0.31 | -1.75 ± 0.44
UUCGAGCAAUAUUACGUCUA | -1.29 ± 0.15 | -0.414 ± 0.13
UUCGAGCAAUAUUACGUUAU | -2.58 ± 0.2 | -2.82 ± 0.38
UUCGAGCAAUAUUACGUUCC | -2.94 ± 0.26 | -1.19 ± 0.3
UUCGAGCAAUAUUACGUUUU | -3.49 ± 0.18 | -2.77 ± 0.2
UUCUAGCAAUAUUACGAAUG | -2.45 ± 0.4 | –
UUCUAGCAAUAUUACGACCG | -1.13 ± 0.26 | -1.07 ± 0.42
UUCUAGCAAUAUUACGACUG | -1.64 ± 0.17 | -0.702 ± 0.2
UUCUAGCAAUAUUACGAGUA | -0.88 ± 0.15 | -0.0809 ± 0.13
UUCUAGCAAUAUUACGCACA | -0.654 ± 0.27 | -0.205 ± 0.23
UUCUAGCAAUAUUACGCAGU | -3.89 ± 0.43 | -3.11 ± 0.35
UUCUAGCAAUAUUACGCAUU | -1.95 ± 0.29 | -1.5 ± 0.35
UUCUAGCAAUAUUACGCUGC | – | -2.1 ± 0.38
UUCUAGCAAUAUUACGGAUA | -1.44 ± 0.17 | -0.551 ± 0.15

Sequence | self-splicing fitness (ln) (30 °C) | self-splicing fitness (ln) (37 °C)
UUCUAGCAAUAUUACGGCCU | -3.05 ± 0.38 | –
UUCUAGCAAUAUUACGGGGA | -0.859 ± 0.21 | -0.995 ± 0.21
UUCUAGCAAUAUUACGGUGU | -3.4 ± 0.32 | -2.91 ± 0.37
UUCUAGCAAUAUUACGUCCG | -1.45 ± 0.25 | -0.81 ± 0.31
UUCUAGCAAUAUUACGUCGG | -3.54 ± 0.26 | -3.1 ± 0.29
UUCUAGCAAUAUUACGUGAC | -3.69 ± 0.31 | -1.61 ± 0.24
UUCUAGCAAUAUUACGUGGC | -3.1 ± 0.24 | –
UUCUAGCAAUAUUACGUGUC | -3.35 ± 0.19 | -3.01 ± 0.21
UUGAAGCAAUAUUACGAAUA | -0.868 ± 0.12 | -1.13 ± 0.15
UUGAAGCAAUAUUACGACCC | -3.15 ± 0.28 | -0.772 ± 0.17
UUGAAGCAAUAUUACGACCG | -0.105 ± 0.28 | 0.113 ± 0.28
UUGAAGCAAUAUUACGACCU | 0.0483 ± 0.11 | 0.587 ± 0.14
UUGAAGCAAUAUUACGACUG | -0.106 ± 0.073 | 0.183 ± 0.097
UUGAAGCAAUAUUACGAGAG | -1.5 ± 0.12 | -0.926 ± 0.14
UUGAAGCAAUAUUACGAGCG | -0.107 ± 0.089 | 0.65 ± 0.14
UUGAAGCAAUAUUACGAUCG | -0.0761 ± 0.14 | 0.264 ± 0.19
UUGAAGCAAUAUUACGAUGU | -1.61 ± 0.067 | -0.962 ± 0.11
UUGAAGCAAUAUUACGCAUU | -3.34 ± 0.23 | -3.18 ± 0.25
UUGAAGCAAUAUUACGCCAG | -0.461 ± 0.14 | 0.214 ± 0.21
UUGAAGCAAUAUUACGCUCU | -1.82 ± 0.12 | -0.916 ± 0.12
UUGAAGCAAUAUUACGCUGA | -1.61 ± 0.15 | -0.574 ± 0.19
UUGAAGCAAUAUUACGGAGC | -2.81 ± 0.21 | -2.5 ± 0.41
UUGAAGCAAUAUUACGGCAC | -0.928 ± 0.13 | -0.814 ± 0.17
UUGAAGCAAUAUUACGGUAA | -0.968 ± 0.1 | -0.399 ± 0.12
UUGAAGCAAUAUUACGGUAU | -2.49 ± 0.11 | -1.5 ± 0.18
